Test results reported in article PMC10086585, “From netrin‐1‐targeted SPECT/CT to internal radiotherapy for management of advanced solid tumors” (EMBO Molecular Medicine, 2023).

B1: recombinant human integrin α6β4 (complex)
chain 1: FNLDTREDNVIRKYGDPGSLFGFSLAMHWQLQPEDKRLLLVGAPRAEALPLQRANRTGGLYSCDITARGPCTRIEFDNDADPTSESKEDQWMGVTVQSQGPGGKVVTCAHRYEKRQHVNTKQESRDIFGRCYVLSQNLRIEDDMDGGDWSFCDGRLRGHEKFGSCQQGVAATFTKDFHYIVFGAPGTYNWKGIVRVEQKNNTFFDMNIFEDGPYEVGGETEHDESLVPVPANSYLGLLFLTSVSYTDPDQFVYKTRPPREQPDTFPDVMMNSYLGFSLDSGKGIVSKDEITFVSGAPRANHSGAVVLLKRDMKSAHLLPEHIFDGEGLASSFGYDVAVVDLNKDGWQDIVIGAPQYFDRDGEVGGAVYVYMNQQGRWNNVKPIRLNGTKDSMFGIAVKNIGDINQDGYPDIAVGAPYDDLGKVFIYHGSANGINTKPTQVLKGISPYFGYSIAGNMDLDRNSYPDVAVGSLSDSVTIFRSRPVINIQKTITVTPNRIDLRQKTACGAPSGICLQVKSCFEYTANPAGYNPSISIVGTLEAEKERRKSGLSSRVQFRNQGSEPKYTQELTLKRQKQKVCMEETLWLQDNIRDKLRPIPITASVEIQEPSSRRRVNSLPEVLPILNSDEPKTAHIDVHFLKEGCGDDNVCNSNLKLEYKFCTREGNQDKFSYLPIQKGVPELVLKDQKDIALEITVTNSPSNPRNPTKDGDDAHEAKLIATFPDTLTYSAYRELRAFPEKQLSCVANQNGSQADCELGNPFKRNSNVTFYLVLSTTEVTFDTPDLDINLKLETTSNQDNLAPITAKAKVVIELLLSVSGVAKPSQVYFGGTVVGEQAMKSEDEVGSLIEYEFRVINLGKPLTNLGTATLNIQWPKEISNGKWLLYLVKVESKGLEKVTCEPQKEINSLNLTESHNSRKKREITEKQIDDNRKFSLFAERKYQTLNCSVNVNCVNIRCPLRGLDSKASLILRSRLWNSTFLEEYSKLNYLDILMRAFIDVTAAAENIRLPNAGTQVRVTVFPSKTVAQYS
chain 2: NRCKKAPVKSCTECVRVDKDCAYCTDEMFRDRRCNTQAELLAAGCQRESIVVMESSFQITEETQIDTTLRRSQMSPQGLRVRLRPGEERHFELEVFEPLESPVDLYILMDFSNSMSDDLDNLKKMGQNLARVLSQLTSDYTIGFGKFVDKVSVPQTDMRPEKLKEPWPNSDPPFSFKNVISLTEDVDEFRNKLQGERISGNLDAPEGGFDAILQTAVCTRDIGWRPDSTHLLVFSTESAFHYEADGANVLAGIMSRNDERCHLDTTGTYTQYRTQDYPSVPTLVRLLAKHNIIPIFAVTNYSYSYYEKLHTYFPVSSLGVLQEDSSNIVELLEEAFNRIRSNLDIRALDSPRGLRTEVTSKMFQKTRTGSFHIRRGEVGIYQVQLRALEHVDGTHVCQLPEDQKGNIHLKPSFSDGLKMDAGIICDVCTCELQKEVRSARCSFNGDFVCGQCVCSEGWSGQTCNCSTGSLSDIQPCLREGEDKPCSGRGECQCGHCVCYGEGRYEGQFCEYDNFQCPRTSGFLCNDRGRCSMGQCVCEPGWTGPSCDCPLSNATCIDSNGGICNGRGHCECGRCHCHQQSLYTDTICEINYSAIHPGLCEDLRSCVQCQAWGTGEKKGRTCEECNFKVKMVDELKRAEEVVVRCSFRDEDDDCTYSYTMEGDGAPGPNSTVLVHKKKDCPPGS
notes: integrin alpha-6, human, recombinant; integrin beta-4, human, recombinant; also called hIntegrin
B2: recombinant human glypican‐1 (natural protein, UniProt P35052 24-530, looked up)
chain: DPASKSRSCGEVRQIYGAKGFSLSDVPQAEISGEHLRICPQGYTCCTSEMEENLANRSHAELETALRDSSRVLQAMLATQLRSFDDHFQHLLNDSERTLQATFPGAFGELYTQNARAFRDLYSELRLYYRGANLHLEETLAEFWARLLERLFKQLHPQLLLPDDYLDCLGKQAEALRPFGEAPRELRLRATRAFVAARSFVQGLGVASDVVRKVAQVPLGPECSRAVMKLVYCAHCLGVPGARPCPDYCRNVLKGCLANQADLDAEWRNLLDSMVLITDKFWGTSGVESVIGSVHTWLAEAINALQDNRDTLTAKVIQGCGNPKVNPQGPGPEEKRRRGKLAPRERPPSGTLEKLVSEAKAQLRDVQDFWISLPGTLCSEKMALSTASDDRCWNGMARGRYLPEVMGDGLANQINNPEVEVDITKPDMTIRQQIMQLKIMTNRLRSAYNGNDVDFQDASDDGSGSGSGDGCLDDLCSRKVSRKSSSSRTPLTHALPGLSEQEGQKTS
notes: glypican-1, human, recombinant; also called hGlypican‐1
B3: recombinant human vitronectin (natural protein, UniProt P04004 20-478, looked up)
chain: DQESCKGRCTEGFNVDKKCQCDELCSYYQSCCTDYTAECKPQVTRGDVFTMPEDEYTVYDDGEEKNNATVHEQVGGPSLTSDLQAQSKGNPEQTPVLKPEEEAPAPEVGASKPEGIDSRPETLHPGRPQPPAEEELCSGKPFDAFTDLKNGSLFAFRGQYCYELDEKAVRPGYPKLIRDVWGIEGPIDAAFTRINCQGKTYLFKGSQYWRFEDGVLDPDYPRNISDGFDGIPDNVDAALALPAHSYSGRERVYFFKGKQYWEYQFQHQPSQEECEGSSLSAVFEHFAMMQRDSWEDIFELLFWGRTSAGTRQPQFISRDWHGVPGQVDAAMAGRIYISGMAPRPSLAKKQRFRHRNRKGYRSQRGHSRGRNQNSRRPSRATWLSLFSSEESNLGANNYDDYRMDWLVPATCEPIQSVFFFSGDKYYRVNLRTRRVDTVDPPYPRSIAQYWLGCPAPGHL
notes: vitronectin, human, recombinant; also called hVitronectin
B4: recombinant human lumican (natural protein, UniProt P51884 19-338, looked up)
chain: QYYDYDFPLSIYGQSSPNCAPECNCPESYPSAMYCDELKLKSVPMVPPGIKYLYLRNNQIDHIDEKAFENVTDLQWLILDHNLLENSKIKGRVFSKLKQLKKLHINHNNLTESVGPLPKSLEDLQLTHNKITKLGSFEGLVNLTFIHLQHNRLKEDAVSAAFKGLKSLEYLDLSFNQIARLPSGLPVSLLTLYLDNNKISNIPDEYFKRFNALQYLRLSHNELADSGIPGNSFNVSSLVELDLSYNKLKNIPTVNENLENYYLEVNQLEKFDIKSFCKILGPLSYSKIKHLRLDGNRISETSLPPDMYECLRVANEVTLN
notes: lumican, human, recombinant; also called hLumican
B5: fibronectin leucine‐rich transmembrane protein (FLRT1), recombinant human (natural protein, UniProt Q9NZU1 49-552, looked up)
chain: IDSTTCPSVCRCDNGFIYCNDRGLTSIPADIPDDATTLYLQNNQINNAGIPQDLKTKVNVQVIYLYENDLDEFPINLPRSLRELHLQDNNVRTIARDSLARIPLLEKLHLDDNSVSTVSIEEDAFADSKQLKLLFLSRNHLSSIPSGLPHTLEELRLDDNRISTIPLHAFKGLNSLRRLVLDGNLLANQRIADDTFSRLQNLTELSLVRNSLAAPPLNLPSAHLQKLYLQDNAISHIPYNTLAKMRELERLDLSNNNLTTLPRGLFDDLGNLAQLLLRNNPWFCGCNLMWLRDWVKARAAVVNVRGLMCQGPEKVRGMAIKDITSEMDECFETGPQGGVANAAAKTTASNHASATTPQGSLFTLKAKRPGLRLPDSNIDYPMATGDGAKTLAIHVKALTADSIRITWKATLPASSFRLSWLRLGHSPAVGSITETLVQGDKTEYLLTALEPKSTYIICMVTMETSNAYVADETPVCAKAETADSYGPTTTLNQEQNAGPMASLP
notes: FLRT1 (fibronectin leucine-rich transmembrane protein 1), human, recombinant; also called hFLRT‐1; FLTR1

Molecular target: T1, human recombinant netrin‐1, on AHC biosensors (human, UniProt O95631 25-604)
T1 construct: netrin-1, human, recombinant; AHC sensors capture human IgG Fc, so an Fc-tagged netrin-1 is surmised; Capture through a human antibody cannot be excluded; It may otherwise be the same protein as m1; also called h‐netrin‐1
Experiment: BLI; netrin-1 on AHC biosensors; analytes at 3.12-100 nM; 30°C, 1,000 rpm; PBS, 0.02% Tween-20, 0.1% BSA; 5 min association, 5 min dissociation
Conditions: both partners purified

Row | Kd [nM] | Binder
1 | 0.96 | B1
2 | 15.6 | B2
3 | 6.85 | B3
4 | 15.5 | B4
5 | 15.5 | B5
